The values below come from patent US7534937B2, “Genes conferring herbicide resistance” (Athenix Corporation, priority 2004, dated 2009).

This test has as its system E. coli strain DH5α. Kind of test: Growth (OD600) in M63 broth containing glyphosate of cells carrying pAX299 (grg8). The test is classed as cell-based. The following applies: for OD600: 37° C., about 46 hours, means ± standard deviations, triplicate cultures. The procedure: The grg8 open reading frame (ORF) was amplified by PCR, cloned into the plasmid vector pCR-Blunt-II from Invitrogen, and transformed into E. coli strain DH5α. Plasmid DNA was prepared and the presence and orientation of the inserts were determined by restriction digest. One clone contained the ORF in the forward orientation with respect to the lac promoter in the vector. This plasmid was named pAX299. The insert was sequenced and the plasmid was tested for the ability to confer resistance to glyphosate.
pAX299 was tested for the ability to grow on M63 medium in the presence of glyphosate using cells containing empty vector as a control. The plasmid pAX296 in host strain DH5α was used as a negative control. This plasmid contains a fragment of tobacco genomic DNA cloned into the vector pCR-Blunt-II. Starter cultures of the two strains were grown in M63 broth with 50 μg/ml kanamycin to maintain the plasmid. The starter cultures were diluted to approximately equal cell densities, as determined by measuring OD600, then diluted 1 to 200 into 3 ml of M63 broth containing 0 to 200 mM glyphosate. Triplicate 3 ml cultures of each strain in each concentration were grown. Cultures were grown at 37° C. with constant shaking. After about 46 hours, 0.3 ml aliquots were withdrawn and the OD600 was measured. Values represent means + standard deviations.

B1: grg8: Glyphosate resistance gene from strain ATX4145 encoding a novel non-Class II EPSP synthase (SEQ ID NO:3); ORF carried in plasmid pAX299 (protein, listed as Brevundomonas vesicularis)
chain: MMMGRAKLTIIPPGKPLTGRAMPPGSKSITNRALLLAGLAKGTSRLTGALKSDDTRYMAEALRAMGVTIDEPDDTTFIVKGSGKLQPPAAPLFLGNAGTATRFLTAAAALVDGKVIVDGDAHMRKRPIGPLVDALRSLGIDASAETGCPPVTINGTGRFEASRVQIDGGLSSQYVSALLMMAAGGDRAVDVELLGEHIGALGYIDLTVAAMRAFGAKVERVSPVAWRVEPTGYHAADFVIEPDASAATYLWAAEVLSGGKIDLGTPAEQFSQPDAKAYDLISKFPHLPAVIDGSQMQDAIPTLAVLAAFNEMPVRFVGIENLRVKECDRIRALSSGLSRIVPNLGTEEGDDLIIASDPSLAGKILTAEIDSFADHRIAMSFALAGLKIGGITILDPDCVAKTFPSYWNVLSSLGVAYED
B1 gave an OD600 (0 mM glyphosate) of 1.18 ± 0.029; an OD600 (10 mM glyphosate) of 1.15 ± 0.018; an OD600 (20 mM glyphosate) of 1.10 ± 0.043; an OD600 (50 mM glyphosate) of 1.20 ± 0.037; an OD600 (100 mM glyphosate) of 1.31 ± 0.024; an OD600 (200 mM glyphosate) of 0.05 ± 0.004. For the same molecule, the “Glyphosate resistance (conclusion from Table 1)” value (0 to 200 mM glyphosate) was “confers resistance to high levels of glyphosate”.
